{
  "source": "paper PMC3634854",
  "about": "“S100A12 Suppresses Pro-inflammatory, but Not Pro-Thrombotic Functions of Serum Amyloid A” (PLoS ONE, 2013)",
  "proteins": {"B1": {"name": "Human recombinant S100A12 (natural protein, UniProt P80511 1-92, looked up)", "chain": "MTKLEEHLEGIVNIFHQYSVRKGHFDTLSKGELKQLLTKELANTIKNIKDKAVIDEIFQGLDANQDEQVDFQEFISLVAIALKAAHYHTHKE", "notes": "S100A12, human, recombinant"}},
  "molecular_target": "the molecule itself",
  "test": "cross-linking; S100A12 (1 µg) and SAA (1 µg), alone or together, with bis[sulfosuccinimidyl] suberate (BS3, 5 µM) in PBS, in the presence or absence of 1 mM Ca2+, 30 min at RT in the dark; 10% SDS-PAGE under non-reducing conditions, silver stain",
  "note": "“And” between values parts separate entries of the source, which are not always exact repeats. Equal entries are not always repeated.",
  "data": [
    {"protein": "B1", "values": [
      {"measurement": "stoichiometry N", "result": "2 and 4"}
    ]}
  ]
}
